Test results from US20160046707A1 (EISAI R AND D MANAGEMENT, published 2016).

T1: recombinant human CCL16 (human, UniProt O15467 24-120)
T1 construct: also called HCC-4
T1 sequence (looked up): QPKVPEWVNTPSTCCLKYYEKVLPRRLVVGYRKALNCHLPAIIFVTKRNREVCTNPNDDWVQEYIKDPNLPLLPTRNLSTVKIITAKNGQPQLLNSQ

T2: cynomolgus CCL20-secreted alkaline phosphatase (SEAP) fusion (cynomolgus monkey)
T2 construct: also called cCCL20; cynomolgus CCL20-SEAP; not shown: the SEAP reporter (cDNA from Clontech pSEAP-Enhancer) and its junction to CCL20
T2 chain: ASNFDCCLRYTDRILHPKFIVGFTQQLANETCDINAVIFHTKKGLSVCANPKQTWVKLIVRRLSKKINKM

T3: rhesus CCL20-secreted alkaline phosphatase (SEAP) fusion (rhesus monkey)
T3 construct: also called rCCL20; rhesus CCL20-SEAP; not shown: the SEAP reporter (cDNA from Clontech pSEAP-Enhancer) and its junction to CCL20
T3 chain: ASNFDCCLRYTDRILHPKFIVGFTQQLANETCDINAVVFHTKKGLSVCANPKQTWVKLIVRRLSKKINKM


Columns and labels:
recombinant human CCL16 [1] = target: T1, recombinant human CCL16; experiment: ELISA, plate-bound chemokine (1 ug/ml), antibody 10 ug/ml, OD450
Procedure: The wells of a 96-well plate were coated with 1 μg/ml of the recombinant human chemokines in PBS (−). After overnight incubation at 4° C., the wells were blocked with 1× Block-Ace (Dainippon Sumitomo Pharma, UK-B80) for 1 hour at room temperature. After washing twice with 0.02% Tween 20/PBS (−), we added 50 μl of 10 μg/ml purified 36F7C10, chimeric 36F710, HC2/LK3, or HC2/LC3 in 0.02% Tween 20/PBS (−) to each well. The wells were incubated for 1 hour at room temperature and washed three times as described in Example 3. […] After washing five times, a TMBZ (3,3′,5,5′-tetramethylbenzidine) solution (1%, in N,N-Dimethylformamide) was added to the wells and incubated for 15-30 minutes. The reaction was stopped by adding an equal volume of a 2 M H₂SO₄ stopping solution, and the optical density was read at 450 nm by ARVO (PerkinElmer).

[2] = target: T2, cynomolgus CCL20-secreted alkaline …; experiment: SPR (Biacore), CCL20-SEAP captured by anti-SEAP, antibody injected (bivalent format), 1:1 Langmuir
Procedure: We also used surface plasmon resonance (Biacore™) analysis to test whether HC2/LC3 and HC2/LK3 can bind to mouse, cynomolgus, or rhesus macaque CCL20 orthologs. Monoclonal mouse anti-human placental alkaline phosphatase was immobilized on all four flow cells of a CM5 chip at a flow rate of 25 μl/min. 25 μl of a 2 nM solution of human, rhesus, cynomolgus, or mouse CCL20-SEAP in HBS-EP buffer was injected over flow cell 2, 3, or 4. For antibody binding, 240 μl of 0-80 nM dilutions of HC2/LC3, HC2/LK3, or 2F5-5 MAb in HBS-EP buffer (or buffer alone) was injected over all four flow cells at a flow rate of 50 μl/min. Dissociation followed for 45 min. Flow cell 1 (anti-SEAP alone) was used as a reference for all flow cells. Regeneration of the flow cells was performed with 10 mM glycine at pH 2.25. Due to regeneration effects on the capturing capacity of the chips, antibody injections were performed sequentially from low to high concentration. Data fitting was performed using a 1:1 Langmuir model.
In contrast, chimeric, HC2/LC3, and HC2/LK3 antibodies effectively bound to human, rhesus, and cynomolgus CCL20 (Table 17).

recombinant human CCL16 [3] = target: T1, recombinant human CCL16; experiment: SPR (Biacore): antibody captured on anti-human Fc, 100 nM chemokine injected
Procedure: We used Biacore™ analysis to test whether HC2/LK3 and HC2/LC3 cross-react with CCL16. Monoclonal mouse anti-human Fc was immobilized on all four flow cells of a CM5 chip at a flow rate of 25 μl/min with HBS-EP buffer containing 0.2 mg/mL BSA. Subsequently, 50 μl of a 1 μg/ml solution of chimeric, HC2/LC3, or HC2/LK3 antibody in HBS-EP buffer with 0.2 mg/ml BSA was injected over flow cells 2, 3, and 4, respectively. 150 μl of a 100 nM solution of CCL20 or CCL16 in HBS-EP buffer (or buffer alone) with 0.2 mg/ml BSA was then injected over all four flow cells at a flow rate of 40 μl/min. Dissociation followed for 20 min. Flow cell 1 (anti-human Fc antibody alone) was used as a reference for all flow cells.
Under these conditions, human CCL20 bound to the chimeric (FIG. 13A), HC2/LC3 (FIG. 13B), and HC2/LK3 (FIG. 13B) antibodies captured on the chip with similar strength.

[4] = target: T3, rhesus CCL20-secreted alkaline …; experiment: ELISA on CCL20-SEAP, Abs 450; x axis 'ug/ml' in 4-fold steps down from 10, taken as the antibody concentration as in FIG. 11C
[5] = target: T4, human CCL20-secreted alkaline phosphatase (SEAP) fusion (human, UniProt P78556 27-96); experiment: as above
T4 construct: also called hCCL20; human CCL20-SEAP; not shown: secreted alkaline phosphatase (SEAP), cDNA from pSEAP-Enhancer vector (Clontech)

[6] = target: T2, cynomolgus CCL20-secreted alkaline …; experiment: as above
[7] = target: rat CCL20-secreted alkaline phosphatase (SEAP) fusion (rat, UniProt P97884 27-96; P05187 23-511); experiment: as above
rat CCL20-secreted alkaline phosphatase (SEAP) fusion, sequence (P97884 other isoform, or with tags, fused parts or gaps): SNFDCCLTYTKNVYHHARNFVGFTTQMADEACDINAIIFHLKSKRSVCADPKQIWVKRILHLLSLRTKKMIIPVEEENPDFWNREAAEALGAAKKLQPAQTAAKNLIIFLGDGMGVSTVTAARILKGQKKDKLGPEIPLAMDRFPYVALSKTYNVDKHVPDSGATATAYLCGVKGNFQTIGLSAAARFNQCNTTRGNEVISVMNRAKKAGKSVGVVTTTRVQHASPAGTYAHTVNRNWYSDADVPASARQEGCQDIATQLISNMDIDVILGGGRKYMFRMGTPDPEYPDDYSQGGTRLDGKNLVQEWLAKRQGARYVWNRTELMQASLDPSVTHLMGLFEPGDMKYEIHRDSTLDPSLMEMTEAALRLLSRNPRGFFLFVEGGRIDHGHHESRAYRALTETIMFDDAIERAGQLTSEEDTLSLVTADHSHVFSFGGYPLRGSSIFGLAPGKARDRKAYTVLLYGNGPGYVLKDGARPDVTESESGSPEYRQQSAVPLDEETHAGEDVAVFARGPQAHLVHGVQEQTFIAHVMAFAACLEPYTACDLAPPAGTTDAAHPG

T4 sequence (P78556 27-96): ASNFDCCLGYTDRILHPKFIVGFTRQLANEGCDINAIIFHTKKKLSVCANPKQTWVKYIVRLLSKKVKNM

Row | Binder | binding result (recombinant human CCL16 [1]) | Kd [2] [nM] | koff [2] [s⁻¹] | kon [2] [M⁻¹ s⁻¹] | binding result (recombinant human CCL16 [3]) | EC50 (read off the curve) [4] [µg/mL] | EC50 (read off the curve) [5] [µg/mL] | EC50 (read off the curve) [6] [µg/mL] | binding result [7]
1 | mouse anti-human CCL20 monoclonal antibody 36F7C10 (antibody, V domains shown, Mouse hybridoma antibody; also called MouseMAb; parental mouse clone 36F7C10) VH: QVQLQQPGAELVKPGASVKMSCKASGYTFTNYWMHWVKQRPGQGLEWIGVIDPSDSYTTYNQKFKGKATLTVDTSSSTAYMQLSSLTSEDSAVYYCTRGNYGVDYAMDYWGQGTSVTVSS VL: DIQMTQSPASLSASVGETVTITCGASENIYGALNWYQRKQGKSPQLLIYGATNLADGMSSRFSGSGSGRQYSLKISSLHPDDVATYYCQNVLITPYTFGGGTKLEIK | no binding (tested: 10 ug/ml) |  |  |  |  |  |  |  | 
2 | chimeric 36F7C10 antibody (36F7C10-hFc) (antibody, V domains shown, also called chimeric 36F710; Chimeric MAb) VH: QVQLQQPGAELVKPGASVKMSCKASGYTFTNYWMHWVKQRPGQGLEWIGVIDPSDSYTTYNQKFKGKATLTVDTSSSTAYMQLSSLTSEDSAVYYCTRGNYGVDYAMDYWGQGTSVTVSS VL: DIQMTQSPASLSASVGETVTITCGASENIYGALNWYQRKQGKSPQLLIYGATNLADGMSSRFSGSGSGRQYSLKISSLHPDDVATYYCQNVLITPYTFGGGTKLEIK |  | 0.0132 | 5.04e-05 | 3.83e+06 | no binding (tested: 100 nM) |  |  |  | 
3 | humanized anti-human CCL20 antibody 36LK3/36HC2 (antibody, human IgG1, kappa, V domains shown, expressed in HEK293 cells; also called HC2/LK3; HC2LK3) VH: QVQLVQSGAEVKKPGASVKVSCKASGYTFTNYWMHWVRQAPGQGLEWMGVIDPSDSYTTYAQKFQGRVTMTVDTSTSTVYMELSSLRSEDTAVYYCARGNYGVDYAMDYWGQGTLVTVSS VL: DIQMTQSPSSLSASVGDRVTITCGASENIYGALNWYQRKPGKAPKLLIYGATNLADGVPSRFSGSGSGRDYTLTISSLQPEDFATYYCQNVLITPYTFGQGTKLEIKR |  | 0.0283 | 0.000149 | 5.28e+06 | no binding (tested: 100 nM) | ~0.02 | ~0.02 | ~0.02 | no binding (tested: 10 ug/ml)
4 | humanized anti-human CCL20 antibody 36LC3/36HC2 (antibody, human IgG1, kappa, V domains shown, expressed in HEK293 cells; also called HC2/LC3; HC2LC3) VH: QVQLVQSGAEVKKPGASVKVSCKASGYTFTNYWMHWVRQAPGQGLEWMGVIDPSDSYTTYAQKFQGRVTMTVDTSTSTVYMELSSLRSEDTAVYYCARGNYGVDYAMDYWGQGTLVTVSS VL: DIQMTQSPSSLSASVGDRVTITCRASENIYGALNWYQQKPGKAPKLLIYGATNLADGVPSRFSGSGSGRQYSLTISSLQPEDFATYYCQNVLITPYTFGGGTKLEIKR | no binding (tested: 10 ug/ml) | 0.0155 | 0.000134 | 8.64e+06 |  | ~0.02 | ~0.02 | ~0.02 | no binding (tested: 10 ug/ml)
